Laboratory results published in paper PMC4264689, “Oligomerization, Conformational Stability and Thermal Unfolding of Harpin, HrpZPss and Its Hypersensitive Response-Inducing C-Terminal Fragment, C-214-HrpZPss” (PLoS ONE, 2014).

Target: the molecule itself
Experiment: native gel or EMSA; native PAGE of the purified proteins in solution; multiple bands / broad smear taken as polydisperse oligomers; gel conditions not given

B1: HrpZPss (harpin HrpZ from Pseudomonas syringae pv. syringae), full length (natural protein)
chain: MQSLSLNSSSLQTPAMALVLVRPEAETTGSTSSKALQEVVVKLAEELMRNGQLDDSSPLGKLLAKSMAADGKAGGGIEDVIAALDKLIHEKLGDNFGASADSASGTGQQDLMTQVLNGLAKSMLDDLLTKQDGGTSFSEDDMPMLNKIAQFMDDNPAQFPKPDSGSWVNELKEDNFLDGDETAAFRSALDIIGQQLGNQQSDAGSLAGTGGGLGTPSSFSNNSSVMGDPLIDANTGPGDSGNTRGEAGQLIGELIDRGLQSVLAGGGLGTPVNTPQTGTSANGGQSAQDLDQLLGGLLLKGLEATLKDAGQTGTDVQSSAAQIATLLVSTLLQGTRNQAAA
notes: Harpin HrpZ of Pseudomonas syringae pv. syringae, 34.7 kDa, 341 amino acids, full length; Forms polydisperse oligomers; the number of copies is not defined; also called full length HrpZPss; native HrpZPss; source: expressed and purified as described earlier [15]
binding result: binds

B2: C-214-HrpZPss (C-terminal fragment of HrpZPss with 214 amino acids) (domain or fragment)
chain: LTKQDGGTSFSEDDMPMLNKIAQFMDDNPAQFPKPDSGSWVNELKEDNFLDGDETAAFRSALDIIGQQLGNQQSDAGSLAGTGGGLGTPSSFSNNSSVMGDPLIDANTGPGDSGNTRGEAGQLIGELIDRGLQSVLAGGGLGTPVNTPQTGTSANGGQSAQDLDQLLGGLLLKGLEATLKDAGQTGTDVQSSAAQIATLLVSTLLQGTRNQAAA
notes: Harpin HrpZ of Pseudomonas syringae pv. syringae, C-terminal 214 residues (N-terminal 127 amino acids deleted); Cloned under the NdeI and EcoRI sites of pET 28a, which probably adds an N-terminal His6 tag with a thrombin site; Forms polydisperse oligomers; the number of copies is not defined; also called C-terminal 214 residues of HrpZPss; source: E. coli BL21 (DE3), pET 28a, purified (Ni-NTA, …)
binding result: binds
